Measured values as given in paper PMC11662687, “Molecular basis of the phosphorothioation-sensing antiphage defense system IscS–DndBCDE–DndI” (Nucleic Acids Research, 2024).

Tests used:
DndI [1] = biological target: T1, DndI (Salmonella enterica, UniProt E2D680); parameters: gene A6E75_01280; settings: r3.1 buffer, 10 mM MgCl2, pH 7.9, 37 °C; without or with phosphorothioate pUC19 DNA
DndI [2] = biological target: T1, DndI; assay: nucleoside triphosphatase assay; assay type: biochemical; parameters: gene A6E75_01280; full length (residues 1-596); homodimer in crystal; 1,788 bp dndI fragment cloned for FRET construct, but ORF printed elsewhere as 1,971 bp; settings: r3.1 buffer, 10 mM MgCl2, pH 7.9, 37 °C; without or with phosphorothioate pUC19 DNA buffer presumed
DndI [3] = biological target: T2, DndI (Salmonella enterica serovar Cerro 87, UniProt E2D680 1-596); assay: EMSA; EMSA: 100 nM 70 bp DNA, 10 uL, NEB r3.1 buffer (composition and pH not given), 4 C, 1 h, 6% polyacrylamide gel; settings: protein: recombinant; tags: His (pET28a); chain copies: 2; blunt
T2 sequence: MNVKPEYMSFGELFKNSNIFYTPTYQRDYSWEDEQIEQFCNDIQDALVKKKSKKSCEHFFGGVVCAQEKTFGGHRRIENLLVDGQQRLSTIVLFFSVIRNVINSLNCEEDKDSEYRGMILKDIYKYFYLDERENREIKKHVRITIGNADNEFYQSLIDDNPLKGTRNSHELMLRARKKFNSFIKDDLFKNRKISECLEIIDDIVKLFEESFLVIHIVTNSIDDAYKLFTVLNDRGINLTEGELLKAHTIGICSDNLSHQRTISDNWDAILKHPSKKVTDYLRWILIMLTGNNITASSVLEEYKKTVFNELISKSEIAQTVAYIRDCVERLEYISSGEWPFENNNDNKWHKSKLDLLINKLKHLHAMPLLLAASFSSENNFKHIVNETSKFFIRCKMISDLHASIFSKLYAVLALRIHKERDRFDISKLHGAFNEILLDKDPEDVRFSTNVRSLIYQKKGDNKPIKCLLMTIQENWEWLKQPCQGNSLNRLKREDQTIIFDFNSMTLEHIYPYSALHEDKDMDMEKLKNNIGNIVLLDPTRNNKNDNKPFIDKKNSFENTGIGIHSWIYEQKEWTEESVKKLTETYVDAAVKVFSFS

DndI CTD = biological target: T3, DndI CTD (Salmonella enterica serovar Cerro 87, UniProt E2D680 239-596); assay: as above; settings: protein: recombinant; tags: His (pET28a); blunt
T3 sequence: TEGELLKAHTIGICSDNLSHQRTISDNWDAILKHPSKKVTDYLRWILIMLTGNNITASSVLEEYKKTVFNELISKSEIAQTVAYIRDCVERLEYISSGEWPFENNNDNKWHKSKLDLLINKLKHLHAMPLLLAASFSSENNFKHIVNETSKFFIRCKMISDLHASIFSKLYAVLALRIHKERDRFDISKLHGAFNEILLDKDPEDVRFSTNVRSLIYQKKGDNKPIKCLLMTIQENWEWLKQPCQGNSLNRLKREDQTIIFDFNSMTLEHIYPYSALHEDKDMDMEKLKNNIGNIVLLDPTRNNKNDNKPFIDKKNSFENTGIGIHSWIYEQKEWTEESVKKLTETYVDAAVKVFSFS

DndI R87A = DndI R87A (Salmonella enterica serovar Cerro 87, UniProt E2D680 1-596, R87A); assay: EMSA; settings: protein: recombinant; tags: His (pET28a); blunt

## Nc1ncnc2c1ncn2[C@@H]1O[C@H](COP(=O)(O)OP(=O)(O)OP(=O)(O)O)[C@@H](O)[C@H]1O [ATP]
DndI [1]
  malachite green phosphate release: DndI exhibited an intrinsic ATPase activity

## Nc1nc2c(ncn2[C@@H]2O[C@H](COP(=O)(O)OP(=O)(O)OP(=O)(O)O)[C@@H](O)[C@H]2O)c(=O)[nH]1 [GTP]
DndI [2]
  nucleoside triphosphatase assay: DndI demonstrated weak hydrolytic capabilities with regard to GTP, CTP and UTP

B1: 70 bp GAAC/GTTC EMSA DNA (PT-free) (dsDNA)
DNA 1: GCTGCAACAGGATGCCAATAAGACCAAAAAAACCAGCCAGCAAGCAGAGAACGACGAGAGCTGGCAATCT
DNA 2: AGATTGCCAGCTCTCGTCGTTCTCTGCTTGCTGGCTGGTTTTTTTGGTCTTATTGGCATCCTGTTGCAGC
DndI [3]
  Kd: 9.31 µM
DndI CTD
  Kd: 0.66 µM
DndI R87A
  Kd: 3.3 µM
